How the values were obtained:
[1] = biological target: T1, human CD27 on human T cells (human, UniProt P26842 21-260); assay: flow cytometry on human T cells, n=5; highest of the n=5 determinations
T1 construct: Native CD27 on primary human T cells; also called hCD27
T1 sequence: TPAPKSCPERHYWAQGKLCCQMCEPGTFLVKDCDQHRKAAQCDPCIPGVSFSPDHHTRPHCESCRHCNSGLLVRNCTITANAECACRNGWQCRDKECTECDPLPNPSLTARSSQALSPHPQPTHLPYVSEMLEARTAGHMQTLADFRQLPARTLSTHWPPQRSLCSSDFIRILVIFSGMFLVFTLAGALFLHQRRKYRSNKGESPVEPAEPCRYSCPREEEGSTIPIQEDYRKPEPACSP

[2] = biological target: T2, human CD27 (hCD27), form in the assay not stated (human, UniProt P26842 20-260, limits assumed); assay: Scatchard analysis; format not stated; Scatchard analysis, not SPR; antibody, format not stated
T2 construct: Whole entry named
T2 sequence: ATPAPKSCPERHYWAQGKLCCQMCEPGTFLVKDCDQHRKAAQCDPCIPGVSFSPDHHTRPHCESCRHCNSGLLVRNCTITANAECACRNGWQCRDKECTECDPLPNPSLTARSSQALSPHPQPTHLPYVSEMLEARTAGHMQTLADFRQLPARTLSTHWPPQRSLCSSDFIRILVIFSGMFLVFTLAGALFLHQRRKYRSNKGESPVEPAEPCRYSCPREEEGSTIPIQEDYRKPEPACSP

[3] = biological target: T1, human CD27 on human T cells; assay: flow cytometry on human T cells, n=5; mean of n=5
[4] = biological target: T3, cynomolgus CD27 on cynomolgus T cells (cynomolgus monkey); assay: binding to cynomolgus T cells
T3 construct: whole, on cells; also called cCD27

[5] = biological target: T1, human CD27 on human T cells; assay: flow cytometry on human T cells, n=5; lowest of the n=5 determinations
[6] = biological target: T1, human CD27 on human T cells; assay: flow cytometry on human T cells, FIG. 1A
[7] = biological target: T3, cynomolgus CD27 on cynomolgus T cells; assay: flow cytometry on cynomolgus T cells, FIG. 1B
[8] = biological target: T1, human CD27 on human T cells; assay: cell-based or functional assay
[9] = biological target: T3, cynomolgus CD27 on cynomolgus T cells; assay: estimated in vivo serum EC50 for 50% CD27 receptor occupancy in monkey whole blood, Emax model
Description: Criteria for evaluation included clinical observations, hematology, PK, CD27 receptor occupancy (RO), circulating sCD27 levels, lymphocyte subset analysis, cytokine levels, and ADA determination. Blood samples were obtained prior to dosing and at various intervals up to 42 days post-dose. Overall, there were no adverse findings, including no adverse clinical observations and no changes in hematologic parameters. There were time- and dose-dependent increases in circulating sCD27 levels. […] There were no significant changes in circulating lymphocyte subsets including CD4⁺, Treg (Foxp3⁺/CD4⁺), CD8⁺ T, CD20⁺ B, and NK cells, or circulating cytokine levels.

[10] = biological target: T1, human CD27 on human T cells; assay: flow cytometry on human T cells pretreated with 10 µg/ml human CD70; bound antibody detected with labelled anti-human IgG
[11] = biological target: T4, hCD27-mouseFc or hCD27-Histag proteins (human, UniProt P26842 20-191); assay: SPR at 37 C, Fab with hCD27-mouseFc or hCD27-Histag, 1:1 fit binding model; 37 C; lower end of the measured values
T4 construct: not shown: mouse Fc or His tag
T4 sequence: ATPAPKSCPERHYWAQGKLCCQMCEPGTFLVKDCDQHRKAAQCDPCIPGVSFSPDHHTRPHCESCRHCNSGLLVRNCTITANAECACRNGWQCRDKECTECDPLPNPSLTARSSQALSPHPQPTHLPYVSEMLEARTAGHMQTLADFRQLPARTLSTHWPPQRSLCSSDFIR
Protocol: (§1) The measured values were 41-44 nM at 37° C. and 13-16 nM at 25° C. […] The kinetic analysis used a 1:1 fit binding model.

[12] = biological target: T4, hCD27-mouseFc or hCD27-Histag proteins; assay: SPR; due to an increased dissociation rate, association rate unchanged
Protocol: as §1

[13] = biological target: T4, hCD27-mouseFc or hCD27-Histag proteins; assay: SPR at 25 C, Fab with hCD27-mouseFc or hCD27-Histag, 1:1 fit binding model; 25 C; lower end of the measured values
Protocol: as §1

[14] = biological target: T1, human CD27 on human T cells; assay: blocking assay by flow cytometry: human T cells with antibody in the presence of 10 µg/ml soluble human CD70; blocked ligand CD70 detected with labelled anti-CD70
Description: Binding of the Abs in the assay was detected by a labeled anti-human IgG Ab (*, ahIgG). […] Binding of the ligand blocking 1F5 Ab was not detected. […] CD70 was detected by a labeled anti-CD70 Ab (*, aCD70). […] Binding of CD70 decreased with increasing concentrations of the ligand blocking 1F5 Ab. “MFI,” “hIgG1,” and “FL2” are as described for FIG. 1. “FL1” in (B) indicates measurement in fluorescence channel 1 (FL1).
The presence or absence of binding of the Abs was detected using a labeled anti-human IgG Ab. […] See FIG. 2A, showing a schematic of the assay, and FIG. 2B, showing a graph of the results. Binding of the ligand blocking 1F5 Ab was not detected. Id. […] CD70 was detected by a labeled anti-CD70 Ab.

B1: HuMAb BMS-986215 (human IgG1 anti-human CD27 monoclonal antibody) (antibody, V domains shown)
VH: QVQLVQSGSEVKKPGASVKVSCKASGYTFTTYAMNWVRQAPGQGLEWMGWINTNTGNPTYAQGFTGRFVFSLDTSVNTAYLQISSLKAEDTAVYYCARDFGGFDYWGQGTLVTVSS
VL: AIQLTQSPSSLSASVGDRVTITCRASQGISSALAWYQQKPGKAPKLLINDASSLESGVPSRFSGSGSGTDFTLTISSLQPEDFATYYCQQFNNYPRTFGQGTKVEIKR
modifications: N-terminal glutamine to pyroglutamate; N-glycan at N297 (Table 4)
notes: Full-length human IgG1 produced in CHO cells; derived from clone 16D9
[1]
  EC50: 0.022 to 0.076 nM
[2]
  Kd: 0.045 nM
[3]
  EC50: 0.044 nM
[4]
  EC50: ~5 ng/mL
[5]
  EC50: 0.022 to 0.076 nM
[6]
  EC50: 0.0221 nM
[7]
  EC50: 0.092 nM
[8]
  IFN-γ production of CD4+CD45RO+ memory T cells, CHO-svCD3-CD32a co-culture (EC50): 0.015 nM
  IFN-γ secretion in FIG. 6(B), CHO-svCD3-CD32a co-culture (EC50): 0.00624 nM
  IFN-γ secretion, CHO-svCD3-CD32a co-culture (mean EC50): 0.0078 nM
  IL-2 release from SEB-stimulated PBMCs, with PD-1 blockade against without: 2 fold
  T cell proliferation in FIG. 6(A), CHO-svCD3-CD32a co-culture (EC50): 0.0045 nM
  T cell proliferation, CHO-svCD3-CD32a co-culture (mean EC50): 0.009 nM
  induction of IFN-γ secretion from CD4+CD25- T cells co-cultured with B cells, 100 ng/ml SEB, antibody at 10 µg/ml: > 2.5 fold
  proliferation of CD4+CD45RO+ memory T cells, CHO-svCD3-CD32a co-culture (EC50): 0.005 nM
[9]
  EC50: 0.08 nM
[10]
  EC50 (read off the curve): ~0.1 nM

B2: Fab fragment of BMS-986215 (Fab, V domains shown)
VH: B1 VH
VL: AIQLTQSPSSLSASVGDRVTITCRASQGISSALAWYQQKPGKAPKLLINDASSLESGVPSRFSGSGSGTDFTLTISSLQPEDFATYYCQQFNNYPRTFGQGTKVEIK
[11]
  Kd: 41 to 44 nM
[12]
  fold loss of affinity from 25° C. to 37° C.: 3 fold
[13]
  Kd: 13 to 16 nM

B3: Reference HuMAb 1F5 (human anti-hCD27 mAb, ligand blocking) (antibody, human IgG1, kappa, V domains shown)
VH: QVQLVESGGGVVQPGRSLRLSCAASGFTFSSYDMHWVRQAPGKGLEWVAVIWYDGSNKYYADSVKGRFTISRDNSKNTLYLQMNSLRAEDTAVYYCARGSGNWGFFDYWGQGTLVTVSS
VL: DIQMTQSPSSLSASVGDRVTITCRASQGISRWLAWYQQKPEKAPKSLIYAASSLQSGVPSRFSGSGSGTDFTLTISSLQPEDFATYYCQQYNTYPRTFGQGTKVEIKR
notes: also called 1F5-IgG1
[14]
  IC50 (read off the curve): ~1 nM
[6]
  EC50: 1.09 nM
[7]
  EC50: 1.8 nM
[8]
  IFN-γ production of CD4+CD45RO+ memory T cells, CHO-svCD3-CD32a co-culture (EC50): 0.089 nM
  IFN-γ secretion in FIG. 6(B), CHO-svCD3-CD32a co-culture (EC50): 0.0402 nM
  T cell proliferation in FIG. 6(A), CHO-svCD3-CD32a co-culture (EC50): 0.0357 nM
  proliferation of CD4+CD45RO+ memory T cells, CHO-svCD3-CD32a co-culture (EC50): 0.073 nM
